Laboratory results taken from patent US20190282683A1.

Molecular target: Ag85b protein from Mycobacterium tuberculosis (poly-His tagged test protein) (Mycobacterium tuberculosis)

Substance: splenocytes of mice injected with Sbi-III-IV-Ag85b (cells without a defined receptor)
- Secreted IFN-gamma in the tissue culture supernatant (ELISA): 4 fold
